Experimental data reported in US10766952B2, “Methods for reducing migraine frequency in a subject in need thereof” (Beth Israel Deaconess Medical Center, Inc., priority 2017, dated 2020).
Positions count from the first letter of the chain named. Numbers in names are those of the source.

B1: M68: G1 variant: L1 R28N,T30G; L2 L56I; H2 E54K,A57N,S58D,E64D; HC-FW3 L99T,A100V (antibody, V domains shown)
VH: EVQLVESGGGLVQPGGSLRLSCAASGFTFSNYWISWVRQAPGKGLEWVAEIRSKSDNDATHYADAVKGRFTISRDNAKNSLYLQMNSLRAEDTAVYYCTVYFDYGLAIQNYWGQGTLVTVSS
VL: EIVLTQSPATLSLSPGERATLSCKASKNVGTYVSWYQQKPGQAPRLLIYGASNRYIGIPARFSGSGSGTDFTLTISSLEPEDFAVYYCSQSYNYPYTFGQGTKLEIK
B2: M75: G1 variant: L1 R28N,T30G; L2 L56S; H2 E54K,A57V; HC-FW3 L99T,A100V (antibody, V domains shown)
VH: B1 VH with N57V, D58S, D64E
VL: B1 VL with I56S
B3: M21: G1 variant: L1 R28W; HC-FW3 L99S (antibody, V domains shown)
VH: B1 VH with K54E, N57A, D58S, D64E, T99S, V100A
VL: B1 VL with N28W, G30T, I56L
B4: M69: G1 variant: L1 R28N,T30G; L2 L56I; H2 E54K,A57N,S58E; HC-FW3 L99T,A100V (antibody, V domains shown)
VH: B1 VH with D58E, D64E
VL: B1 VL
B5: M81: G1 variant: L1 R28N,T30S; L2 L56S; H2 E54K,A57N,S58E; HC-FW3 L99T,A100V (antibody, V domains shown)
VH: B1 VH with D58E, D64E
VL: B1 VL with G30S, I56S
B6: M80: G1 variant: L1 R28N,T30S; L2 L56I; H2 E54K,A57N,S58V; HC-FW3 L99T,A100V (antibody, V domains shown)
VH: B1 VH with D58V, D64E
VL: B1 VL with G30S
B7: M83: G1 variant: L1 R28N,T30V; L2 A51H,L56T; H2 E54K,A57N,S58M,H61F; HC-FW3 L991 (printed),A100V (antibody, V domains shown)
VH: B1 VH with D58M, H61F, D64E
VL: B1 VL with G30V, A51H, I56T
B8: M78: G1 variant: L1 R28N,T30S; L2 G50A,L56T; H2 E54K,A57N,S58T; HC-FW3 L99T,A100V (antibody, V domains shown)
VH: B1 VH with D58T, D64E
VL: B1 VL with G30S, G50A, I56T
B9: M84: G1 variant: L1 R28N,T30V; L2 A51H,L56T; H2 E54N,A57N; HC-FW3 L991 (printed),A100V (antibody, V domains shown)
VH: B1 VH with K54N, D58S, D64E
VL: B1 VL with G30V, A51H, I56T
B10: M72: G1 variant: L1 R28N,T30G; L2 L56S; H2 E54K; HC-FW3 L99T,A100V (antibody, V domains shown)
VH: B1 VH with N57A, D58S, D64E
VL: B1 VL with I56S
B11: M82: G1 variant: L1 R28N,T30V; L2 A51H,L56T; H2 A57N; HC-FW3 L991 (printed),A100V (antibody, V domains shown)
VH: B1 VH with K54E, D58S, D64E
VL: B1 VL with G30V, A51H, I56T
B12: M79: G1 variant: L1 R28N,T30S; L2 G50A,L56T; H2 E54K,A57P; HC-FW3 L99T,A100V (antibody, V domains shown)
VH: B1 VH with N57P, D58S, D64E
VL: B1 VL with G30S, G50A, I56T
B13: M74: G1 variant: L1 R28N,T30G; L2 L56S; H2 E54K,A57S; HC-FW3 L99T,A100V (antibody, V domains shown)
VH: B1 VH with N57S, D58S, D64E
VL: B1 VL with I56S
B14: M73: G1 variant: L1 R28N,T30G; L2 L56S; H2 E54K,A57N,S58Y,E64D; HC-FW3 L99T,A100V (antibody, V domains shown)
VH: B1 VH with D58Y
VL: B1 VL with I56S
B15: M76: G1 variant: L1 R28N,T30S; L2 G50A,L56T; H2 A57G; HC-FW3 L99T,A100V (antibody, V domains shown)
VH: B1 VH with K54E, N57G, D58S, D64E
VL: B1 VL with G30S, G50A, I56T
B16: M71: G1 variant: L1 R28N,T30G; L2 L56I; H2 E54K,A57Y; HC-FW3 L99T,A100V (antibody, V domains shown)
VH: B1 VH with N57Y, D58S, D64E
VL: B1 VL
B17: M20: G1 variant: L1 R28W; HC-FW3 L99R,A100L (antibody, V domains shown)
VH: B1 VH with K54E, N57A, D58S, D64E, T99R, V100L
VL: B1 VL with N28W, G30T, I56L
B18: M70: G1 variant: L1 R28N,T30G; L2 L56I; H2 E54K,A57S; HC-FW3 L99T,A100V (antibody, V domains shown)
VH: B1 VH with N57S, D58S, D64E
VL: B1 VL
B19: M77: G1 variant: L1 R28N,T30S; L2 G50A,L56T; H2 E54K,A57D; HC-FW3 L99T,A100V (antibody, V domains shown)
VH: B1 VH with N57D, D58S, D64E
VL: B1 VL with G30S, G50A, I56T

Target: T1, rat α-CGRP (Rattus norvegicus, UniProt P01256)
T1 construct: rat α (1-37); host or cells: synthetic peptide
T1 sequence (P01256 83-119 limits assumed): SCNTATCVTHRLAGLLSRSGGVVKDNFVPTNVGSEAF
Experiment: Biacore affinity of antibody G1 Fab and variants to rat α-CGRP
Format: binding
Details: 37° C., Fab, screening mode unless underlined
Procedure: (§1) Biacore assay for affinity determination. […] All Biacore assays were conducted in HBS-EP running buffer (10 mM HEPES pH 7.4, 150 mM NaCl, 3 mM EDTA, 0.005% v/v polysorbate P20). CGRP surfaces were prepared by diluting the N-biotinylated CGRP to a concentration of less than 0.001 mg/mL into HBS-EP buffer and injecting it across the SA sensor chip using variable contact times. Low capacity surfaces, corresponding to capture levels <50 response units (RU) were used for high-resolution kinetic studies, whereas high capacity surfaces (about 800 RU of captured CGRP) were used for concentration studies, screening, and solution affinity determinations. […] Samples were typically injected for lminute at 100 μL/min and dissociation times of at least 10 minutes were allowed. After each binding cycle, surfaces were regenerated with 25 mM NaOH in 25% v/v ethanol, which was tolerated over hundreds of cycles. An entire titration series (typically generated in duplicate) was fit globally to a 1:1 Langmuir binding model using the BlAevaluation program. This returned a unique pair of association and dissociation kinetic rate constants (respectively, kon and koff) for each binding interaction, whose ratio gave the equilibrium dissociation constant (KD=koff/[…]).
(§2) High-resolution analysis of binding interactions with extremely slow offrates. […] The protocol described above was used with the following modifications. The association rate constant (kon) was determined by injecting a 2-fold titration series (in duplicate) spanning 550 nM-1 nM for 30 seconds at 100 μL/min and allowing only a 30 second dissociation phase. The dissociation rate constant (koff) was determined by injecting three concentrations (high, medium, and low) of the same titration series in duplicate for 30 seconds and allowing a 2-hour dissociation phase. The affinity (KD) of each interaction was obtained by combining the kon and koff values obtained in both types of experiments, as shown in Table 4.
(§3) The binding affinities of Fab fragments were determined by Biacore by flowing them across CGRPs on a SA chip.

Molecule	α-rat koff
B1	0.00676 s⁻¹
B2	0.0187 s⁻¹
B3	0.000695 s⁻¹
B4	0.00181 s⁻¹
B5	0.00429 s⁻¹
B6	0.0993 s⁻¹
B7	No binding
B8	0.167 s⁻¹
B9	0.0176 s⁻¹
B10	0.00395 s⁻¹
B11	0.00699 s⁻¹
B12	0.19 s⁻¹
B13	0.00603 s⁻¹
B14	0.003 s⁻¹
B15	0.00116 s⁻¹
B16	0.00212 s⁻¹
B17	0.00144 s⁻¹
B18	0.00607 s⁻¹
B19	0.0143 s⁻¹

Target: T2, human α-CGRP (Homo sapiens, UniProt P06881)
T2 construct: 1-37 (WT); purchased; host or cells: synthetic peptide
T2 sequence (P06881 83-119 limits assumed): T1 sequence (P01256 83-119 limits assumed) with S1A, N3D, D25N, E35K
Experiment: Biacore affinity of antibody G1 Fab and variants to human α-CGRP
Format: binding
Details: 37° C., Fab, screening mode unless underlined
Procedure: as §1, §2, §3

Molecule	α-human koff [s⁻¹]
B1	0.000428
B2	0.00116
B3	0.000142
B4	0.000733
B5	0.00049
B6	0.00209
B7	0.000933
B8	0.00131
B9	0.00108
B10	0.0004
B11	0.000877
B12	0.00129
B13	0.000597
B14	0.000255
B15	0.000364
B16	0.00128
B17	0.000136
B18	0.000559
B19	0.000477
